Assays:
[1] = molecular target: T1, extracellular region of human TIGIT fused to the Fc region of human immunoglobulin gamma-1 chain (hTIGIT-Fc) (human); assay: ELISA, hybridoma screening
T1 construct: also called human TIGIT-Fc fusion protein; wild-type TIGIT-Fc
From the text: Mouse antibodies secreted in culture supernatants of hybridoma cells were subjected to a series of screening to identify the antibodies with the following properties: (1) binding to purified hTIGIT-Fc fusion protein, (2) binding to NS0-hTIGIT cells, (3) non-binding to NS0 cells, (4) binding to CD3+ T cells derived from phytohemagglutinin-treated human peripheral blood mononuclear cells and (5) blocking of the binding of hCD155-Fc fusion protein to NS0-hTIGIT cells. The first property to bind to hTIGIT-Fc was tested by ELISA using HRP-conjugated goat antibodies against mouse kappa and lambda light chains (SouthernBiotech, Birmingham, Ala.) for identification of mouse anti-TIGIT antibodies. The second, third and fourth properties were examined by flow cytometry using PE-labeled goat anti-mouse gamma chain antibody (SouthernBiotech) for detection of cell-bound mouse antibodies. The fifth property was analyzed by flow cytometry as described below. […] TIG1, TIG2 and TIG3 monoclonal antibodies were purified from culture supernatant of hybridoma cells by protein A column chromatography as described above. The isotypes of TIG1, TIG2 and TIG3 are mouse IgG2b/kappa, IgG2a/kappa and IgG2a/kappa, respectively.

[2] = molecular target: T2, TIGIT-Fc fusion protein with the N37A mutation (human); assay: ELISA on captured mutant TIGIT-Fc
T2 construct: also called pFCm179-N37A product
Procedure: (§1) Binding of each of mouse TIG1, TIG2 and TIG3 antibodies to the TIGIT mutants was examined by ELISA. An ELISA plate was coated with 100 μl/well of goat anti-human IgG Fc-specific polyclonal antibody (Sigma-Aldrich), 1/2,000-diluted in PBS at 4° C. overnight, washed with Wash Buffer, and blocked with 200 μl/well ELISA Buffer for 20 min at room temperature. After washing with Wash Buffer, 0.5 μg/ml of transiently expressed TIGIT-Fc fusion proteins, carrying either the wild-type TIGIT or one of the six TIGIT mutants, in ELISA Buffer (100 μl/well) were applied to the ELISA plate in duplicates for incubation at room temperature for 30 min. As a negative control, culture supernatants of untransfected HEK293 cells were used. After washing with Wash Buffer, 100 μl/well of 200 ng/ml of a test antibody (TIG1, TIG2 or TIG3) in ELISA Buffer (100 μl/well) was applied. After incubating the ELISA plate for 30 min at room temperature and washing with Wash Buffer, bound antibodies were detected using 100 μl/well of HRP-conjugated goat anti-mouse kappa chain polyclonal antibody (Bethyl Laboratories, Montgomery, Tex.), 1/2,000-diluted in ELISA Buffer. After incubating the plate for 0.5 hr at room temperature and washing with Wash Buffer, color development was initiated by adding 100 μl/well of ABTS substrate (Sigma-Aldrich) and stopped with 100 μl/well of 2% oxalic acid. Absorbance was read at 405 nm.
(§2) For each of TIG1, TIG2 and TIG3, the relative binding to each TIGIT mutant was calculated in the following formula. The average absorbance with the wild type TIGIT-Fc fusion proteins [Abs A] was normalized to 100%, and the average absorbance with culture supernatants of untransfected HEK293 cells [Abs B] was normalized to 0%. The average absorbance with a mutant TIGIT-Fc fusion protein [Abs C] was normalized by the following formula: 100×([Abs C]−[Abs B])/([Abs A]−[Abs B]). […] None of the TIGIT mutants used in this assay abolished the binding of TIG2 and TIG3 to TIGIT.

[3] = molecular target: T3, TIGIT-Fc fusion protein with the D51A mutation (human); assay: ELISA on captured mutant TIGIT-Fc
T3 construct: also called pFCm179-D51A product
Procedure: as §1, §2

[4] = molecular target: T4, TIGIT-Fc fusion protein with the Q35A mutation (human); assay: ELISA on captured mutant TIGIT-Fc
T4 construct: the entry already carries the mutation; also called pFCm179-Q35A product
Procedure: as §1, §2

[5] = molecular target: T5, TIGIT-Fc fusion protein with the F86A mutation (human); assay: ELISA, mutant TIGIT-Fc captured by anti-human Fc, antibody at 200 ng/ml, wild type TIGIT-Fc = 100 %
T5 construct: also called pFCm179-F86A product
Procedure: as §1, §2

[6] = molecular target: T6, TIGIT-Fc fusion protein with the N49A mutation (human); assay: as above
T6 construct: also called pFCm179-N49A product
Procedure: as §1, §2

[7] = molecular target: TIGIT-Fc fusion protein with the E39A mutation (printed Q39A in the text) (human); assay: as above
Procedure: as §1, §2

[8] = molecular target: T2, TIGIT-Fc fusion protein with the N37A …; assay: as above
Procedure: as §1, §2

[9] = molecular target: T3, TIGIT-Fc fusion protein with the D51A …; assay: as above
Procedure: as §1, §2

[10] = molecular target: T4, TIGIT-Fc fusion protein with the Q35A …; assay: as above
Procedure: as §1, §2

[11] = molecular target: T7, extracellular region of human TIGIT fused to FLAG and GPI (hTIGIT-GPI), on the surface of NS0 cells (human); assay: flow cytometry, competition with hCD155-Fc for NS0-hTIGIT cells
T7 construct: The GPI signal is processed when the anchor is attached; also called NS0-hTIGIT cells
T7 chain: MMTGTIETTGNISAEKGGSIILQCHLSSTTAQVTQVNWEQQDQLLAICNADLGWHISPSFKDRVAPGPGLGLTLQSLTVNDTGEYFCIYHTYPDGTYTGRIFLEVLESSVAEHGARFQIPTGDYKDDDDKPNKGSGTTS
Procedure: The activity of TIG1, TIG2 and TIG3 to block the interaction between TIGIT and CD155 was analyzed by flow cytometry. NS0-hTIGIT cells were incubated with a sub-saturating concentration of hCD155-Fc in the presence (or absence) of various concentrations of an anti-TIGIT monoclonal antibody as a competitor. Detection of hCD155-Fc bound to NS0-hTIGIT cells was performed with DyLight488-labeled goat anti-human IgG, Fc-specific antibody (Jackson ImmunoResearch, West Grove, Pa.).

[12] = molecular target: T8, human TIGIT on cells (Jurkat-TIGIT cells; human T cells, NK cells and other blood cells) (human, UniProt Q495A1 22-244); assay: cell-based or functional assay
T8 sequence: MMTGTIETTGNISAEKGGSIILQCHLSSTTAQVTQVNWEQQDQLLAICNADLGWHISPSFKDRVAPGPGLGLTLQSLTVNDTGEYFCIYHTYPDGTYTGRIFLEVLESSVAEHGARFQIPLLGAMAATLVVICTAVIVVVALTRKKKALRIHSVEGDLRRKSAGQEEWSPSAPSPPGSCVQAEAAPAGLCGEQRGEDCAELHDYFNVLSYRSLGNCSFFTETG

B1: TIG1 mouse anti-human TIGIT monoclonal antibody (antibody, mouse IgG2b, V domains shown)
VH: DVQLVESGGGLVQPGGSRKLSCAASGFTFSNFGMHWVRQAPEKGLEWVAFISSGSSSIYYADTVKGRFTISRDNPKNTLFLQMTSLRSEDTAMYYCARMRLDYYAMDYWGQGTSVTVSS
VL: DVQITQSPSYLAASPGETITINCRASKSISKYLAWYQEKPGKTNKLLIYSGSTLQSGIPSRFSGSGSGTDFTLTISSLEPEDFAMYYCQQHNEYPWTFGGGTKLEIK
notes: also called anti-TIGIT antibody (TIG1)
B1: binds [1]; no binding [2]; no binding [3]. For the same binder, the binding result [4] was “no binding”, the “Relative binding to TIGIT (%)” value [5] was 49.5% and the “Relative binding to TIGIT (%)” value [6] was 0.5%. The “Relative binding to TIGIT (%)” value [7] was 71.1%, the “Relative binding to TIGIT (%)” value [8] was 0.8% and the “Relative binding to TIGIT (%)” value [9] was 1.8%. For the same binder, the “Relative binding to TIGIT (%)” value [10] was -0.1%, the IC50 [11] was 0.049 µg/mL and the “enhancement of NK cell mediated natural cytotoxicity of K562 cells” value [12] was 2 fold.

From US20170281764A1 (JN BIOSCIENCES, published 2017)
